{"source": "patent US20150148520A1", "about": "(INDIANA UNIVERSITY RESEARCH AND TECHNOLOGY, published 2015)", "key": {"human insulin receptor [1]": {"molecular_target": "T1, human insulin receptor (human, UniProt P06213 28-1382)", "test": "cell-based or functional assay"}, "human IGF-1 receptor [2]": {"molecular_target": "T2, human IGF-1 receptor (human, UniProt P08069 31-1367)", "test": "cell-based or functional assay"}, "human IGF-1 receptor [3]": {"molecular_target": "T2, human IGF-1 receptor", "test": "SPA competition, [125I]-IGF-1, IGF-1R membranes", "protocol": "(§1) Non-specifically bound (NSB) radioactivity was measured in the wells with a four-fold concentration excess of “cold” native ligand than the highest concentration in test samples. Total bound radioactivity was detected in the wells with no competitor. Percent specific binding was calculated as following: % Specific Binding=(Bound-NSB/Total bound-NSB)×100. IC50 values were determined by using Origin software (OriginLab, Northampton, Mass.)."}, "human insulin receptor [4]": {"molecular_target": "T1, human insulin receptor", "test": "SPA competition, [125I]-insulin, IR membranes", "protocol": "as §1"}}, "note": "Bridges are numbered along the chain shown (N, C = ends). Roman numbers before positions name the chains, in order. Where no end group is shown, it is not given here. [ ]: non-standard residue; d: D form. Phe(4-NH2) = Nc1ccc(C[C@H](N)C(=O)O)cc1"}
{"binder": "IGF-1 A: B (D10Y16L17) DPI A-COOH (ligand, disulfide I:6-I:11, I:20-II:18, I:7-II:6; ends not checked) chain 1: GIVDECCFRSCDLRRLEMYCA-OH chain 2: GPETLCGADLVDALYLVCGDRGFY-NH2", "values": [{"measurement": "% Insulin", "setting": "human insulin receptor [1]", "result": 1580, "unit": "%"}, {"measurement": "% IGF", "setting": "human IGF-1 receptor [2]", "result": 112, "unit": "%"}, {"measurement": "activity (0.55 nM)", "setting": "human IGF-1 receptor [3]", "result": 8.1, "unit": "%"}]}
{"binder": "IGF-1 A: B (H5D10Y16L17) DPI (ligand, disulfide I:6-I:11, I:20-II:18, I:7-II:6; ends not checked) chain 1: GIVDECCFRSCDLRRLEMYCA-NH2 chain 2: GPEHLCGADLVDALYLVCGDRGFY-NH2", "values": [{"measurement": "% IGF", "setting": "human IGF-1 receptor [2]", "result": 7.1, "unit": "%"}, {"measurement": "activity (0.55 nM)", "setting": "human IGF-1 receptor [3]", "result": 11.8, "unit": "%"}]}
{"binder": "IGF-1 A (H8 A9 N21): B(H5D10Y16L17) DPI A-COOH (ligand, disulfide I:6-I:11, I:20-II:18, I:7-II:6; ends not checked) chain 1: GIVDECCHASCDLRRLEMYCN-OH chain 2: GPEHLCGADLVDALYLVCGDRGFY-NH2", "values": [{"measurement": "% IGF", "setting": "human IGF-1 receptor [2]", "result": 181, "unit": "%"}, {"measurement": "activity (0.55 nM)", "setting": "human IGF-1 receptor [3]", "result": 13.6, "unit": "%"}]}
{"binder": "IGF-1 A (H8 A9 N21): B (H5D10Y16L17 A22) DPI A-COOH (ligand, not fully specified (C-terminus); ends and bridges not checked) chain 1: GIVDECCHASCDLRRLEMYCN-OH chain 2: GPEHLCGADLVDALYLVCGDAGFY", "values": [{"measurement": "% IGF", "setting": "human IGF-1 receptor [2]", "result": 7.7, "unit": "%"}, {"measurement": "% IGF-1 (in test)", "setting": "human IGF-1 receptor [3]", "result": 2.3, "unit": "%"}, {"measurement": "IC50", "setting": "human IGF-1 receptor [3]", "result": 22.8, "unit": "nM"}, {"measurement": "activity (0.55 nM)", "setting": "human IGF-1 receptor [3]", "result": 2.4, "unit": "%"}]}
{"binder": "IGF-1 A: B (E10Y16L17) DPI (ligand, disulfide I:6-I:11, I:20-II:18, I:7-II:6; not fully specified) A chain: GIVDECCFRSCDLRRLEMYCA-NH2 B chain: GPETLCGAELVDALYLVCGDRGFY-NH2", "values": [{"measurement": "activity (0.55 nM)", "setting": "human IGF-1 receptor [3]", "result": 2.4, "unit": "%"}]}
{"binder": "IGF-1 A: IGF-1 B (1-8)-In (9-17)-IGF-1 B (18-30) (ligand, disulfide I:6-I:11, I:20-II:18, I:7-II:6; ends not checked) chain 1: GIVDECCFRSCDLRRLEMYCA-NH2 chain 2: GPETLCGSHLVEALYLVCGDRGFYFNKPT-NH2", "values": [{"measurement": "activity (0.55 nM)", "setting": "human IGF-1 receptor [3]", "result": 0.4, "unit": "%"}]}
{"binder": "IGF-1 A: In (1-17)-IGF-1 B (18-30) (ligand, disulfide I:6-I:11, I:20-II:19, I:7-II:7; ends not checked) chain 1: GIVDECCFRSCDLRRLEMYCA-NH2 chain 2: FVNQHLCGSHLVEALYLVCGDRGFYFNKPT-NH2", "values": [{"measurement": "activity (0.55 nM)", "setting": "human IGF-1 receptor [3]", "result": 0.9, "unit": "%"}]}
{"binder": "IGF-1 A: In B (1-5)-IGF-1 B (YL) (6-30) (ligand, disulfide I:6-I:11, I:20-II:19, I:7-II:7; not fully specified) A chain: GIVDECCFRSCDLRRLEMYCA-NH2 B chain: FVNQHLCGAELVDALYLVCGDRGFYFNKPT-NH2", "values": [{"measurement": "activity (0.55 nM)", "setting": "human IGF-1 receptor [3]", "result": 2, "unit": "%"}]}
{"binder": "IGF1 A:B(Y^B16L^B17)(p-NH2-F)^A19amide (ligand, disulfide (positions not given here); not fully specified (bridges); also: C-terminal amide, chain not given here) chain 1: GIVDECCFRSCDLRRLEM[Phe(4-NH2)]CA chain 2: GPETLCGAELVDALYLVCGDRGFYFNKPT-NH2", "values": [{"measurement": "IC50", "setting": "human insulin receptor [4]", "result": 1.08, "unit": "nM"}]}
{"binder": "IGF-1 A: B (E10Y16L17)-E31E32 B-COOH (ligand, disulfide I:6-I:11, I:20-II:18, I:7-II:6; ends not checked) chain 1: GIVDECCFRSCDLRRLEMYCA-NH2 chain 2: GPETLCGAELVDALYLVCGDRGFYFNKPTEE-OH", "values": [{"measurement": "activity (0.55 nM)", "setting": "human IGF-1 receptor [3]", "result": 3.1, "unit": "%"}]}
